Measurements: paper PMC3128127
“And” between values parts separate entries of the source, which are not always exact repeats. Equal entries are not always repeated.

How the values were obtained:
[1] = target: HIV-1 GagPol, protease-inactive (D25A, PR-), from an expression plasmid (HIV-1); experiment: incorporation into virus-like particles (fluorescence microscopy of pelleted, filtered particles)
[2] = target: HIV-1 (NL4-3) GagPol, wild type, in authentic virions (HIV-1 (NL4-3)); experiment: incorporation into virions (quantitative fluorescence-based Western blot, LI-COR)

Chain of DsRed-clathrin LC (P09496 whole entry): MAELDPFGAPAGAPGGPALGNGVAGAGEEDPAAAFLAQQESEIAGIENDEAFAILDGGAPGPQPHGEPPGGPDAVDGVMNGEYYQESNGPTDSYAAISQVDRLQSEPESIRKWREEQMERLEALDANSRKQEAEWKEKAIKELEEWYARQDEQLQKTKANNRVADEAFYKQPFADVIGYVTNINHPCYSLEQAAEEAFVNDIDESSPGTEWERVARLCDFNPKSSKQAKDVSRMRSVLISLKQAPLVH

Substance: DsRed-clathrin LC (from UniProt P09496 1-248) (natural protein)
- percent of VLPs labelled with DsRed-clathrin LC [1]: 40%

Substance: clathrin heavy chain (from UniProt Q00610 1-1675) (natural protein)
- percent of the total clathrin HC of the culture present in virions [2]: 6% and 8%
